Key:
[1] = molecular target: Rabbit skeletal muscle actin (RMA), as actin filaments (F-actin) (rabbit) (UniProt P68135); test: open-flow TIRF microscopy of single filament growth
[2] = molecular target: Rabbit skeletal muscle actin (RMA), as actin filaments (F-actin) (rabbit) (UniProt P68135); test: single-molecule microfluidics-assisted TIRF
[3] = molecular target: GST-549-SNAP-N-IQGAP1 (GST-SNAP-N-IQGAP1-6His, 1–522) (UniProt P46940); test: single-molecule step photobleaching

| Substance | average pause time [1] [s] | average dwell time on filament sides [2] [min] | koff [2] [s⁻¹] | stoichiometry N [3] |
| --- | --- | --- | --- | --- |
| GST-C-IQGAP1 (675–1657) (from UniProt P46940 675-1657) (domain or fragment) | 14.7 | – | – | – |
| GST-549-SNAP-N-IQGAP1 (GST-SNAP-N-IQGAP1-6His, 1–522) (from UniProt P46940 1-522) (domain or fragment) | – | 6.8 | 0.0025 | 2 |

Source: article PMC8886817
